The text below walks through data of article PMC4465127 (2015).

The assay has as its target T1, LIN-3 EGF domain EGF (Caenorhabditis elegans, UniProt Q03345).
T1 chain: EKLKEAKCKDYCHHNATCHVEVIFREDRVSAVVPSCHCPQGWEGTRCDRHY

As usually defined, the Kd is the equilibrium constant for the complex coming apart. Read a low Kd as tighter binding.

B1: sLET-23 ECD (protein)
chain: FGNSNAQLWKRCVSPQDCLCSGTTNGISRYGTGNILEDLETMYRGCRRVYGNLEITWIEANEIKKWRESTNSTVDPKNEDSPLKSINFFDNLEEIRGSLIIYRANIQKISFPRLRVIYGDEVFHDNALYIHKNDKVHEVVMRELRVIRNGSVTIQDNPKMCYIGDKIDWKELLYDPDVQKVETTNSHQHCYQNGKSMAKCHESCNDKCWGSGDNDCQRVYRSVCPKSCSQCFYSNSTSSYECCDSACLGGCTGHGPKNCIACSKYELDGICIETCPSRKIFNHKTGRLVFNPDGRYQNGNHCVKECPPELLIENDVCVRHCSDGHHYDATKDVRECEKCRSSSCPKICTVDGHLTNETLKNLEGCEQIDGHLIIEHAFTYEQLKVLETVKIVSEYITIVQQNFYDLKFLKNLQIIEGRKLHNVRWALAIYQCDDLEELSLNSLKLIKTGAVLIMKNHRLCYVSKIDWSSIITSKGKDNKPSLAIAENRDSKLCETEQRVCDKNCNKRGCWGKEPEDCLECKTWKSVGTCVEKCDTKGFLRNQTSMKCERCSPECETCNGLGELDCLTCRHKTLYNSDFGNRMECVHDCPVSHFPTQKNVCEKCHPTCYDNGCTGPDSNLGYGGCKQCKYAVKYENDTIFCLQSSGMNNVCVENDLPNYYISTYDTEGVIETHCEKCSISCKTCSSAGRNVVQNKCVCKHVEYQPNPSERICMDQCPVNSFMVPDTNNTVCKKCHHECDQNYHCANGQSTGCQKCKNFTVFKGDIAQCVSECPKNLPFSNPANGECLDYDIASRQRKTR
The molecule B1 had a Kd of approximately 3000 nM.
